Experimental findings from patent publication US20140348829A1 (CYTODYN, published 2014) are described below.

Residue numbers refer to the chain shown, from its start.

Assay [1] deals with feline LFA-1 (CD11a/CD18 heterodimer) (feline). As to the kind of experiment: cell binding assay on feline MCH-4 cells, purified antibody.
For assay [2] the target is unchanged. In words: cell binding assay on feline MCH-4 cells, CHO supernatant, HRP anti-feline IgG.
Assay [3] has the same target. In words: cell binding assay on feline MCH-4 cells, CHO supernatant; against chimeric #1.
Assay [4] has the same target. In words: cell binding assay on feline MCH-4 cells, purified antibody; against chimeric #1.
Assay [5] deals with feline LFA-1 (CD11a/CD18 heterodimer) (feline, UniProt A0ABI8A8D3 24-1171; A0ABI7ZVN3 67-787). As to the kind of experiment: cell binding assay on feline MCH-4 cells, CHO supernatant, HRP anti-feline IgG.

B1: Felinized HC 3+Felinized LC 2 (#15) antibody: 7301 (Felinized HC 3) + 7303 (Felinized LC 2) (antibody, IgG1)
heavy: QVQLVQSGAEVRKPGASVKIFCKASGYTFTSYYIHWLRQTPEQGREWIGWIYVGDGNTRYNEKFQGRLTLTADKSTSTAYMELSSLRSADTAIYFCARGGNGYFDYWGQDTLVTVSSDIVMTQTPLSLSVTPGEPASISCRASQDVSTALNWYLQKPGQSPRLLIYWASNRHSGVPDRFSGSGSGTDYTLRISRVEADDVGVYYCQQHYSSSLTFGPGTKLEI
light: B1 heavy with K13T, L37V, T40S, E42A, I48M, R59K, K63R, I93M, D110G, T111A
In assay [1], B1 registered an OD450 at 0.1 ug of 0.86 OD450 and an OD450 at 1 ug of 1.29 OD450. Besides, the Relative antigen binding (normalized to parental antibody) (relative to parental) in assay [2] was 0.3. The fold less affinity than the chimeric in assay [3] is 3 fold. In addition, the Average fold change over chimeric in assay [4] came out at 0.76 fold.

B2: antibody #14: 7301 (Felinized HC 3) + 7302 (Felinized LC 1) (antibody, IgG1)
heavy: B1 heavy
light: B1 heavy
notes: Fully felinized, feline IgG1/kappa; tested as CHO supernatant
For the molecule B2, the “Relative antigen binding (normalized to parental antibody)” value in assay [5] was 0.06 relative to parental.

B3: antibody #10: 7300 (Felinized HC 2) + 7302 (Felinized LC 1) (antibody)
heavy: B1 heavy with R45L, I48M, E62Q
light: B1 heavy
B3: the Relative antigen binding (normalized to parental antibody) (relative to parental) in assay [2] was 0.05.

B4: antibody #16: 7301 (Felinized HC 3) + 7304 (Felinized LC 3) (antibody)
heavy: B1 heavy
light: B1 heavy with K13T, L37V, T40S, E42A, I48M, R59K, K63R, I93M, D110G, T111A
In the case of B4, the Relative antigen binding (normalized to parental antibody) (relative to parental) in assay [2] came to 0.05.

B5: antibody #6: 7299 (Felinized HC 1) + 7302 (Felinized LC 1) (antibody, IgG1)
heavy: B1 heavy with R45L, I48M, E62Q
light: B1 heavy
Turning to B5, the Relative antigen binding (normalized to parental antibody) (relative to parental) in assay [2] amounted to 0.05.
